In general, stoichiometry N refers to the number of molecules, sites or subunits per partner or assembly. In general, Kd refers to the equilibrium constant for the complex coming apart. High values mean a looser complex, low ones a tighter complex.

Details in all cases: both partners purified
Assay [1] deals with muskelin CTLH-CRA domain co-expressed with Twa1_52 (rat). Kind of assay: SEC-MALS; CTLH-CRA domain complexes co-expressed in E. coli and purified as complexes; Superdex 75 10/300 GL; 20 mM tricine pH 8.0, 500 mM NaCl, 1 mM TCEP. (Size exclusion chromatography separates by hydrodynamic size, large species first.)
Chain of muskelin CTLH-CRA domain co-expressed with Twa1_52 (rat) (chain, as listed by the source): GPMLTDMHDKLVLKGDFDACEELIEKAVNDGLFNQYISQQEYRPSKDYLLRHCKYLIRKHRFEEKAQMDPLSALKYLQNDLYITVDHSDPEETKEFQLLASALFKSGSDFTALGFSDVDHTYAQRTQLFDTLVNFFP
In assay [2] the target is T1, Wdr26 CTLH-CRA domain (136-278) (mouse, UniProt Q8C6G8 136-278).
T1 construct: Wdr26, mouse, residues 136-278; Could not be purified on its own; source: E. coli BL21 CodonPlus (DE3) RIL, co-expressed with tagless Twa1_52, complex purified (Ni-IDA, 3C cleavage, SEC); not shown: His6, N-terminal, cleaved
T1 sequence (looked up): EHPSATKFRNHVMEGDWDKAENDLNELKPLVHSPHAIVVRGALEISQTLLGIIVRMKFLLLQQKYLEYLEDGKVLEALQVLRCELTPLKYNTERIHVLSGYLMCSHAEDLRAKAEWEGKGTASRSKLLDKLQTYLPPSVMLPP
Described as above.

Assay [3] addresses T2, muskelin CTLH-CRA domain (205–735 Δ248–625) (rat, UniProt Q99PV3 205-735, Δ248–625).
T2 construct: muskelin, rat, fusion of the CTLH motif and the C-terminus (CRA^N-like): residues 205-735 with 248-625 deleted; also called muskelin wt; CTLH-Ct construct; source: E. coli BL21 CodonPlus (DE3) RIL, purified as described previously (van gen Hassend et al., 2023)
In words: ITC; muskelin CTLH-CRA (160 μM, syringe) titrated into RanBP10 or Twa1 CTLH-CRA variants (16 μM, cell); 25°C; 20 mM tricine pH 8.0, 500 mM NaCl, 1 mM TCEP; one-site model.

For another assay, the target named is T3, muskelin (1–735) (rat, UniProt Q99PV3 1-735).
T3 construct: muskelin, rat, residues 1-735; also called full-length muskelin; tetrameric muskelin; source: E. coli BL21 CodonPlus (DE3) RIL, purified as described previously (van gen Hassend et al., 2023)
T3 sequence (Q99PV3 whole entry, the tested form may be a part): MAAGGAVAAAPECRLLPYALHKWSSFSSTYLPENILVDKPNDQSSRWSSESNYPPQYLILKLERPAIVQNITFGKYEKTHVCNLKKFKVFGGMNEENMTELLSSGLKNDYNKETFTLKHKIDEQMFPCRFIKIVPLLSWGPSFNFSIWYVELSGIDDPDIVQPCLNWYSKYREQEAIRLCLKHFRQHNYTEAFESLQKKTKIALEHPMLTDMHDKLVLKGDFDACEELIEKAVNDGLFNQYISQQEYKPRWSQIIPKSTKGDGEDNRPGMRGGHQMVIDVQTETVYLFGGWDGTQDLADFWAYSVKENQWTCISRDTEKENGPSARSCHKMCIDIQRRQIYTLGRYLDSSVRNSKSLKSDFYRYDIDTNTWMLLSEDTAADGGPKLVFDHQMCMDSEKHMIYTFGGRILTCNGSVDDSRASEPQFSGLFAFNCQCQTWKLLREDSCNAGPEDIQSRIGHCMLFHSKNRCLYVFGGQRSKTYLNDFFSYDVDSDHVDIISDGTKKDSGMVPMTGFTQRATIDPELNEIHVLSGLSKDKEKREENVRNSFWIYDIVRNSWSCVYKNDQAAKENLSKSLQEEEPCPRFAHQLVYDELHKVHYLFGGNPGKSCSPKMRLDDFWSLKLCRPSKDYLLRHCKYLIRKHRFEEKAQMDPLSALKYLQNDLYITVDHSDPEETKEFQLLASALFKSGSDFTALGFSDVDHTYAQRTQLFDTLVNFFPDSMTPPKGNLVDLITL
In words: ITC; Twa1_52 CTLH-CRA (192 μM, syringe) titrated into muskelin (1–735) or Wdr26 (102–641) (19 μM, cell); 25°C; 20 mM tricine pH 8.0, 500 mM NaCl, 1 mM TCEP; one-site model. (Isothermal titration calorimetry measures the heat released or taken up as one component is titrated into another.)

The target in a further assay is T4, Wdr26 (102–641) (mouse, UniProt Q8C6G8 102-641).
T4 construct: Wdr26, mouse, residues 102-641; also called dimeric Wdr26; (near) full-length Wdr26; source: E. coli BL21 CodonPlus (DE3) RIL, purified as described previously (van gen Hassend et al., 2023)
T4 sequence (looked up): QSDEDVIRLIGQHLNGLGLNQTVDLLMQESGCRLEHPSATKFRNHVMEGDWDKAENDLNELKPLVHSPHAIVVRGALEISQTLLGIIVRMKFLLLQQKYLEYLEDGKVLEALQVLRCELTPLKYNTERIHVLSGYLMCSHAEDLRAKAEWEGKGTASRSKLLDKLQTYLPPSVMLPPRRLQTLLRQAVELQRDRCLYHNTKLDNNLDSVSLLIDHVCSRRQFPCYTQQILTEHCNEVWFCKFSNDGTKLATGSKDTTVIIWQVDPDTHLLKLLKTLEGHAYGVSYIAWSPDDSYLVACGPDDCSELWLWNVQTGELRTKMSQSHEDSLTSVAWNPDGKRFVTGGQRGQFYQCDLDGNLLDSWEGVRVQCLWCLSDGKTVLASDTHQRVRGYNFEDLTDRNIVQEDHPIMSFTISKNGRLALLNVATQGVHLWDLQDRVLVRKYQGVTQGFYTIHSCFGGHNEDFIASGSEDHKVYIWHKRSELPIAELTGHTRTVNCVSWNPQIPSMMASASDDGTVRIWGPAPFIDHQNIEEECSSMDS
Described as above.

T2 sequence (Q99PV3 other isoform, or with tags, fused parts or gaps Δ248–625 | Δ248–625 | mutant): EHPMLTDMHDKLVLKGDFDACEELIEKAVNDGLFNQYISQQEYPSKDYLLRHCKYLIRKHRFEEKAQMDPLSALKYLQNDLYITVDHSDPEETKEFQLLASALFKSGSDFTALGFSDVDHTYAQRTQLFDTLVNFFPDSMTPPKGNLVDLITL

B1: Twa1_52 mutant (A125G, Q126R, Δ127T, L140K, E144K, L147F, F152Y, F160V), CTLH-CRA domain (domain or fragment, mouse, UniProt Q9D7M1 58-190, looked up)
chain: SVDLETLDERIKIREMILKGQIQEAIALINSLHPELLDTNRYLYFHLQQQHLIELIRQRETEAALEFGRQLAEQGEESRECKTEMKRTFALLAYDSPEESPVGDLLHMMQRQKVWSEVNQAVLDYENRESTP
notes: Twa1, mouse, CTLH-CRA domain 58-190 with eight changes; source: E. coli BL21 CodonPlus (DE3) RIL, purified (Ni-IDA, 3C cleavage, SEC); also tagless, co-expressed with muskelin or Wdr26 CTLH-CRA domain; not shown: His6, N-terminal, cleaved
In the case of B1, the “stoichiometry N” value in assay [1] and in assay [2] was 1 each time. The Kd is 146 nM in assay [3], 17.9 nM with muskelin (1–735) and 15.9 nM with Wdr26 (102–641).

These data come from paper PMC13061415, “A structural code for assembly specificity in GID/CTLH-type E3 ligases” (eLife, 2026).
